Assays:
[1] = Double-blind crossover gluten challenge: daily symptom questionnaire; assay type: in vivo, human (Celiac Sprue patients); conditions: PEP Stage, 20 patients
Source text: Subjects and protocols: This study was approved by the Institutional Review Board of the Palo Alto Medical Foundation in Palo Alto, Calif., and all participants in the study were counseled regarding risks and signed an informed consent document. 22 patients were recruited who were in symptomatic remission on a gluten-free diet. Two patients dropped out of the study, one near the end of the first stage and the other prior to the second stage. The 20 patients who completed the study included 7 men and […] aged 21 to 78 (mean age 49). The time since diagnosis for the 20 patients ranged from 3 months to 18 years (mean 6 years). […] The serum anti-gliadin IgA antibodies and anti-tissue transglutaminase IgA and IgG antibodies were measured by an enzyme linked immunosorbent assay (ELISA) kit (INOVA Diagnostics, Inc., San Diego, Calif.). […] Total serum IgA levels were determined by an Integra instrument (Roche) (normal <81 mg/dl). […] The 25 g D-xylose 5-hour urine excretion test and the 72-hour quantitative fecal fat test were measured at baseline and on Day 15. […] For the 72 h quantitative fecal fat test, patients were instructed to consume a diet containing 80-100 g fat per day during the collection. The fecal fat excretion was determined by a gravimetric method. […]

[2] = Allergenicity of the denatured protein; set-up: species or system rodents, rabbits and humans; conditions: in vivo
[3] = Retention of PEP activity on lyophilization, enteric coating, storage and tabletting; assay type: physicochemical
Experimental: Lyophilization of M. xanthus PEP was performed as follows. The PEP was purified as described in Example 3, and concentrated to an initial concentration of 7.7 mg/ml by Tangential-Flow Filtration (TFF) using a 10K MWCO Pellicon difiltration membrane (Millipore, PLCGC10, 50 cm, Cat. No. PXC010C50). TFF (using a LabScale TFF from Millipore, Cat. No. 29751) was performed for approximately 12 hours (pressure of 50 psi (retentate)/30 psi (permeant)), with periodic addition to the reservoir of 50 mM Sodium Phosphate, 3% Sucrose pH 7.5. Thereafter, PEG-4000 was added with a target concentration of 1%. The final protein concentration was 70-100 mg/ml. This material was centrifuged, then lyophilized. The lyophilization was performed in square petri dishes (Falcon Cat. No. 35-1112) in a DuraStop lyophilizer using parameters outlined in the Table below. Typically, 0.7-0.85 mg PEP was present per mg of lyophilized material.
The enteric coating was mixed vigorously in a beaker on a stir plate. The solution was then decanted into a spray bottle. Rat capsules were carefully spread on paper towels in groups of 20 and the enteric coating solution sprayed onto the capsules. Warm air was used to partially dry the capsules before moving them to a dry paper towel where they air-dried for 30 minutes before the next coat was applied. A total of 3 coats were applied in order to cover all sides of the capsules. […]

B1: PEP: prolyl endopeptidase; Examples 1-2: from Flavobacterium meningosepticum (US Biological); Example 11: source not stated (protein, UniProt P27028 21-705, looked up)
Prolyl endopeptidase: QNSNVLKYPETKKVSHTDTYFGTQVSDPYRWLEDDRAEDTKAWVQQEVKFTQDYLAQIPFRDQLKKQLMDIWNYEKISAPFKKGKYTYFSKNDGLQAQSVLYRKDAAGKTEVFLDPNKFSEKGTTSLASVSFNKKGTLVAYSISEGGSDWNKIIILDAETKKQLDETLLDVKFSGISWLGDEGFFYSSYDKPKEGSVLSGMTDKHKVYFHKLGTKQSQDELIIGGDKFPRRYIGAYVTDDQRYLVVSAANATNGNELYIKDLKNKTDFIPIITGFDSNVNVADTDGDTLYLFTDKDAPNKRLVKTTIQNPKAETWKDVIAETSEPLEINTGGGYFFATYMKDAIDQVKQYDKNGKLVRAIKLPGSGNASGFGGEKTEKDLYYSFTNYITPPTIFKYNVTTGNSEVYQKPKVKFNPENYVSEQVFYTSSDGTKIPMMISYKKGLKKDGKNPTILYSYGGFNISLQPAFSVVNAIWMENGGIYAVPNIRGGGEYGKKWHDAGTKMQKKNVFNDFIAAGEYLQKNGYTSKEYMALSGRSNGGLLVGATMTMRPDLAKVAFPGVGVLDMLRYNKFTAGAGWAYDYGTAEDSKEMFEYLKSYSPVHNVKAGTCYPSTMVITSDHDDRVVPAHSFKFGSELQAKQSCKNPILIRIETNAGHGAGRSTEQVVAENADLLSFALYEMGIKSLK
- average Total Stage Symptom Score (sum of the 14 daily symptom scores) [1]: 23 (range 4 to 82)

B2: FM PEP: recombinant prolyl endopeptidase from Flavobacterium meningosepticum (Genbank D10980) (protein)
chain: QNSNVLKYPETKKVSHTDTYFGTQVSDPYRWLEDDRAEDTKAWVQQEVKFTQDYLAQIPFRDQLKKQLMDIWNYEKISAPFKKGKYTYFSKNDGLQAQSVLYRKDAAGKTEVFLDPNKFSEKGTTSLASVSFNKKGTLVAYSISEGGSDWNKIIILDAETKKQLDETLLDVKFSGISWLGDEGFFYSSYDKPKEGSVLSGMTDKHKVYFHKLGTKQSQDELIIGGDKFPRRYIGAYVTDDQRYLVVSAANATNGNELYIKDLKNKTDFIPIITGFDSNVNVADTDGDTLYLFTDKDAPNKRLVKTTIQNPKAETWKDVIAETSEPLEINTGGGYFFATYMKDAIDQVKQYDKNGKLVRAIKLPGSGNASGFGGEKTEKDLYYSFTNYITPPTIFKYNVTTGNSEVYQKPKVKFNPENYVSEQVFYTSSDGTKIPMMISYKKGLKKDGKNPTILYSYGGFNISLQPAFSVVNAIWMENGGIYAVPNIRGGGEYGKKWHDAGTKMQKKNVFNDFIAAGEYLQKNGYTSKEYMALSGRSNGGLLVGATMTMRPDLAKVAFPGVGVLDMLRYNKFTAGAGWAYDYGTAEDSKEMFEYLKSYSPVHNVKAGTCYPSTMVITSDHDDRVVPAHSFKFGSELQAKQSCKNPILIRIETNAGHGAGRSTEQVVAENADLLSFALYEMGIKSLK
- allergenicity of the denatured protein [2]: non-allergenic in rodents, rabbits and humans

B3: MX PEP: novel recombinant prolyl endopeptidase from Myxococcus xanthus (Genbank AF127082, SEQ ID NO:47) (protein, listed as Myxococcus xanthus)
chain: MSYPATRAEQVVDTLHGVQVADPYRWLEDEKAPEVQTWMTAQNAHAREALAKFPGREALAARFKELFYTDSVSTPSRRNGRFFYVRTHKDKEKAILYWRQGESGQEKVLLDPNGWSKDGTVSLGTWAVSWDGKKVAFAQKPNAADEAVLHVIDVDSGEWSKVDVIEGGKYATPKWTPDSKGFYYEWLPTDPSIKVDERPGYTTIRYHTLGTEPSKDTVVHERTGDPTTFLQSDLSRDGKYLFVYILRGWSENDVYWKRPGEKDFRLLVKGVGAKYEVHAWKDRFYVLTDEGAPRQRVFEVDPAKPARASWKEIVPEDSSASLLSVSIVGGHLSLEYLKDATSEVRVATLKGKPVRTVQLPGVGAASNLMGLEDLDDAYYVFTSFTTPRQIYKTSVSTGKSELWAKVDVPMNPEQYQVEQVFYASKDGTKVPMFVVHRKDLKRDGNAPTLLYGYGGFNVNMEANFRSSILPWLDAGGVYAVANLRGGGEYGKAWHDAGRLDKKQNVFDDFHAAAEYLVQQKYTQPKRLAIYGGSNGGLLVGAAMTQRPELYGAVVCAVPLLDMVRYHLFGSGRTWIPEYGTAEKPEDFKTLHAYSPYHHVRPDVRYPALLMMAADHDDRVDPMHARKFVAAVQNSPGNPATALLRIEANAGHGGADQVAKAIESSVDLYSFLFQVLDVQGAQGGVAAQGR
- specific activity upon lyophilization [3]: No loss of specific activity

Source: patent publication US8796201B2 (The Board of Trustees of the Leland Stanford Junior …, priority 2002, dated 2014)
